According to the nanobody polyreactivity screen of Harvey et al. (2022):

Assay: yeast display, Sf9 membrane polyspecificity reagent, FACS + sequencing; frameworks hold sequencing errors
Outline: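 Galactose induction of a Saccharomyces cerevisiae BJ5465 synthetic nanobody display library ran 36–48 hours. The cells were then stained for 1 hour at 4 °C with 10% biotinylated, detergent-solubilized Sf9 membrane reagent, pulled down on streptavidin microbeads and FACS-sorted into low and high (top ~1%) gates on expression and reagent-binding fluorescence. Labels for polyreactivity follow the gate of origin.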

Sequence | polyreactivity (PSR sort gate)
QVQLVESGGGLVQAGGSLRLSCAASGRTFSLNAMGWYRPAPGKEREFVAAISSTGGSTYYADSVKGRFTISRDNAKNTVYLQMNSLKPEDTAVYYCAKRSVYRTAQGRYSVAYDYWGQGTQVTVSS | high polyreactivity
QVQLVESGGGLVQAGGSLRLSCAASGRTFYLYTMGWYRQAPGKERELVAAITGGGRTYYADSVKGRFTISRDNAKNTVYLQMNSLKPEDTAVYYCNADYAYYSYDYWGQGTQVTVSS | low polyreactivity
QVQLVESGGGLVQAGGSLRLSCAASGITFSVYAMGWYRQAPGKERELVASISSGGTSTYYADSVKGRFTISRDNAKNNVYLQMNSLKTEDSAVYYCAAYSYYTGDQYSYDYWGQGTQVTVSS | low polyreactivity
QVQLVESGVGLVQAGGSLRLSCAASGSIFASYAMGWYRQAPGKERELVAAISRSGTSTRYADSVKGRFTISRDNAKNTVYLQMNSLKPEDTAVYYCAARWYVFFRKYDYWGQGTQVTVSS | high polyreactivity
QVQLVESGGGLVQAGGSLRLSCAASGIILWRNAMGWYRQAPGKDRELVAAITSSGGRTYYADSVKGRFTISRDNAKNTVYLQMNSLKPEDTAVYYCSAYGYSIGPYDYWGQGTQVTVSS | high polyreactivity
QVQLVESGGGLVQAGGSLRLSCAASGSIFGWNAMGWYRQAPGKERELVAAISSGGSTYYADSVKGRFTISRDNAKNTVYLQMNSMKPEDPAVYYCNAYFQYYDYWGQGTQVTVSS | low polyreactivity
QVQLVESGGGLVQAGGSLRLSCAASGSTFGYNAMGWYRQAPGKERELVAAITRSGGSTDYADSVKGRFTISRDNAKNTVYFQMNSLKPEDTAVYYCAAEGTGLQRYGYFGDDGYWGQGTQVTVSS | low polyreactivity
QVQLVESGGGLVQAGGSLRLSCAASGSTFPYYVMGWYRQAPGKERELVASIRSNSGRTYYADSVKGRFTISRDNAKNTVYLQMNSLKPEDTAVYYCNAGVPRYAYTYVKGYYWGQGTQVTVSS | high polyreactivity
QVQLVESGGGLVQAGGSLRLSCAASGRIFAQYALGWYRQAPGKERELVAGIDRRGGSTYYADSVKGRFTISRDNAKNTVYLQMNSLKPEDTAVYYCNALREDPLFFVYIGGGYWGQGTQVTVSS | low polyreactivity
QVQLVESGGGLVQAGGSLRLSCAASGRIFDYYDMGWYRQAPGKERELVAAISNGGSTYYADSVKGRFTISRDNAKNTVYLQMNCLKPEDTAVYYCNNRWYYQYGQSHVRWYDYWGQGTQVTVSS | high polyreactivity
QVQLVESGGGLVQAGGSLRLSCAASGFTFTTYVMGWSRQAPGKERELVAAISRRGTSTRYADSVKGRFTISRDNAKNTVYLQMNSLIPEDTAVYYCAADRPYSIVPYDYWGQGTQVTVSS | high polyreactivity
QVQLVESGGGLVQAGGRLRLSCAASGRIFVQYVMGWYRQAPGKERELVAAITGSDSTTYYADSVKGRFTISRDNAKNTVYLQMNSLKPEDTAVYYCNKDLWLQDDYWGQGTQVTVSS | low polyreactivity
QVQLVESGGGLVQAGGSLRLSCAASGSTFYRYAMGWYRQAPGKEREFVAAITGSGGRTYYADSVKGRFTISRDNAKNTVYLQMNSLKPEDTAVYYCAARYYYFYQISYRYDYWGQGTQVTVSS | high polyreactivity
QVQLVESGGGLVQAGGSLRLSCAASGRTFPYYAMGWYRQAPGKERELVAAITWSGGSTYYADSVKGRFTISRDNAKNTVYLQMNSLKPEDTAVYYCAKDYSRWGWNMGYWGQGTQVTVSS | high polyreactivity
QVQLVESGGGLVQAGGSLRLSCAASGRIFSSYAMGWYRQAPGKEREFVASITWRGGSTYYADSVKGRFTISRDNAKNTVYLQMNSLKPEDTAVYYCAADFYWKTYGYRTHEYDYWGQGTQVTVSS | high polyreactivity
QVQLVESGGGLVQAGGSLRLSCAASGFIFGAYAMGWYRQAPGKERELVAAITKSGGRTYYADSVKGRFTISRDNAKNTVYLQMNSLKPEDTAVYFCAAVTRYPREYDYWGQGTQVTVSS | high polyreactivity
QVQLVESGGGLVQAGGSLRLSCAASGRTIGGYAMGWYRQAPGKERELVATITRGGRTYYADSVKGRFTISRDNAKNTVYLQMNSLKPEDTAVYYCAARYGQSRSVYNLYRFDYWGQGTQVTVSS | high polyreactivity
QVQLVESGGGLVQAGGSLRLSCAASGRIFTWKGMGWYRQAPGKERELVARISSGTRTNYADSVKGRFTISRDNAKNTVYLQMNCLKPEDTAVYYFAAAAKRSDAYHNRRYYWGQGTQVTVSS | high polyreactivity
QVQLVESGGGLVQAGGSLRLSCAASGYIFRQNAMGWYRQAPGKERELVAAISRSDDNTFYADSVKGRFTISRDNAKNTVYLLMNSLKPEDTAVYYCAKYAVPWRYPRGYDYWGQGTQVTVSS | low polyreactivity
QVQLVESGGGLVQAGGSLRLSCAASGSIFLIYAMGWYRQGPGKERELVAGINWSGSRTYYADSVKGRFTISRDNAKNTVYLQMNSLKPEDTAVYDCAARVRRPLYSAYDSWGQGTQVTVSS | low polyreactivity
QVQLVESGGGLVQAGGSLRLICAASGRIFRYYAMGWSRQAPGKERELVAAIRSASSTYYADSVNGRFTISRDNAKITVYLKMNSLIPEDTSVYYCADRLYGVYKRRYYYWGQGTQVTVSS | high polyreactivity
QVQLVESGGGLVQAGGSLRLSCAACGNTFTYYAMGLYRQAPGKERELVASISSGVSTNYADSVKGRFTISRDNAKNTLYLHINSLKPEDTAVYYCARGWSFSTRRFQHTRYYYWGQGTQVTVSS | high polyreactivity

Sequence | polyreactivity (PSR sort gate)
QVQLEESGVGLVQAGGSLRLSCAASGRTFLRNAMGWYRQAPGKEMELVAAISWRGGSTYYADSVKGRFTISRDNAKNTVYLEMNSLKPEDTAVYYCNTFPSQYLWYDYWGQGTQVNVSS | high polyreactivity
QVQLVESGGGLVQAGGSLRLSCAASGFTFPLNAMGWYRQAPGKEREFVAAITYSGGGTYYADSVKGRFTISRDNAKNTVYLQMNSLKPEDTAVYYCAAERGYQAHPGQGDYWGQGTQVTVSS | high polyreactivity
QVQLVESGGGLVQAGGSLRLSCAASGRTFQGYAMGWYRQAPGKERDLVAAISTSGARTYYADSVKGRFTISRDNAKNTVYLQMNSLKPEDTAFYYCAAGGQGGDFGDDYWGQGTQVTVSS | high polyreactivity
QVQLVESGGGLVQAGGSLRLSSAASGLTIAPYARGWYRPAPGKVWELVAAITQRGSSTYYADSVKGRFTISRDNAKNTVYLQMNSLKRVDTAVYYCAARYRARYYWGQGTQVTVSS | high polyreactivity
QVQLVESGGGLVQAGGSLRLSCAASGSTIRDYAMGWYRQAPGKDRELVAVIDNSGGRTYYADSVKGRFTISRDNAKNTVYLQMNSLKPEDTAVYYCNTRRIAQYGYWGQGTQVTVSS | high polyreactivity
QVQLVESGGGLVQAGGSLRLSCAASGSIFLAYAMGWYRQAPGKEREFVAAISSRGGSTYYADSVKGRFTISRDNAKNTVYLQMNSLKPEDTAVYYCARYKYTRQTRVEYGYWGQGTQVTVSS | high polyreactivity
QVQLVESGGGLVQAGGSLRLSCAASGSTFTDYAMGWYRQAPGKERELVAAITDSGGRTYYADSVKGRFTISRDNAKNTVYLQMNSLKPEDTAVYYCATEDDRWYYWGQGTQVTVSS | high polyreactivity
QVQLVESGGGFVQAGGSLRLSCAASGFTFGWYALGWYRQAPGKERELVAAMSFGGSRTYYADSVKGRFSISRDNAKNTVYLQLNILNPEDTAVYYCNVVVGSYSANARSHYWGQGTEVTVSS | high polyreactivity
QVQHVESGGGLVQAGGSLRLSCAASGRIFGYYAMGWYRQAPGKERELVAAISRGGSTNYADSVNGRFTISLDNAKNSVYFQMNSLNPEDTAVYYCAADVASARYYHGYNYWGQGTQVTLSS | high polyreactivity
QVQLVESGGGLVQAGGSLRLSCAASGRTFRRYTMGWYRQAPGKVRELVAAITTSGGSTYYADSVKGRFTISRDNAKNTVYLQMNRLKPEDTAVYYCAATRRYSGDYWGQGTQVTVSS | high polyreactivity
QVQLVESGGGIVQAGGSLRLSCAASGSTFFDNAIGWYRQAPGKERELVAAITRGGSKHYADSVMGRFTISRDNAKNTVYLQMNSVKPEDTAVYSCNAQRYRVPYDYWGQGTQVTVSS | low polyreactivity
QVQLVESGGGLVQAGGSLRLSCAASGSIYLWKAMGWYRQAPGKERELVAAIDSGGSTYAESVKGRFTISRDNAKNTVYLQMNSLKPEDTAVYYCAAEIPDEWPYDYWGQGTQVTVSS | low polyreactivity
QVQLVESGGGLVQAGGSLRLSCAASGSIFVFYAMGWYRQAPGKERELVASITSSGGSTYYADSVKGRFTISRDNAKNTVYLQMNSLKPEDTAVYYCAARKYRNPYYYRYYYWGQGTQVTVSS | high polyreactivity
QVQLVESGGGLVQAGGSLRISCAASGNIIRKYAMGWYRQAPGKEREFVAAISSSGGRTYYADSVKGRFTISRDNAKNTVYLQMNSLKPEDTAGYYCARPYSYAYVLGDYWGQGTQVTVSS | high polyreactivity
QVQLVESGGGLVQAGGSLRLSCAASGSTFPGNAMGGYRQAPGKERELVAAINWSGDSTYYADSVKGRFTISRDNAKNTVYLQMNSLKPEDTAVYYCAAYGDGYYYWGQGTQVTVSS | low polyreactivity
QVQLVESGGGLVQAGGSLRLSCAASGRTFYSKAMGWYRQAPGKERELVAAISSSGSSTSYADSVKGRFTMSRDNAKNTVYLQMNSLKPEDTAVYYCAARTKRRANRDYWGQGTQVTVSS | high polyreactivity
QVQLVESGGGLLQAGGSLRFSCAASGRILAGNAMGWYRQAPGTEREWVAAICSVDSTNYADSVKGRFTISRDNAKNTFYLLMYSLKPEDSAVYYCARVPQYNTYSEFDSWGQGTQVTVSS | low polyreactivity
QVQLVESGGGLVQAGGSLRLICAASGGIFYVNAMGWYRQAPGKERELVADIRYSGTSTYYADSVKGRFTISRDNAKNTVYLQMNSLKPEDTAVYYCAVDAWDTTLVYEQGAERDSWGQGTQVTVSS | low polyreactivity
QVQLVESGGGLVQAGGSLRLSCAASGNILGYNAMGWYRQAPGKERELVAAISWIGGSTYYADSVKGRFTISRDNAKNTVYLQMNSLKPEDTAVYYCAARRVIYYPAFYYDYYYWGQGTQVTVSS | low polyreactivity
QVQLVESGGGLVQAGGSLRLSCAASGRIFYRNAMGWYRKAPGKEREWVAAISSSAGSTFYADSVKGRFTISRDNSKNTVYLQMNSLKPEDTAVYYCAAGSGTFVTRYRYGYWGQGTQVTVSS | high polyreactivity
QVQLVESGGGLVQAGGSLRLSCAASVSTFSYNYMGWYRQAPRKERELDAAISSGGSTKYADSVKGRFRISRDNAKNTVYLQMNSLKPEDTAVYYCIKDYPQNPLPASSYYLYDYWGQGTQVTVSS | high polyreactivity
